The results in this text go back to article doi:10.1101/2021.09.24.461649 (bioRxiv, 2021).

The data set “SEC” deals with the molecule itself. The data set can be described thus: SEC. Background: Size exclusion chromatography separates by hydrodynamic size, large species first.
A further data set has as its target EccA1 ATPase, wild type (M. tuberculosis H37Rv, UniProt P9WPH9 1-573). The data set can be described thus: SPR.

Chain of EccA1 ATPase, wild type (P9WPH9 whole entry): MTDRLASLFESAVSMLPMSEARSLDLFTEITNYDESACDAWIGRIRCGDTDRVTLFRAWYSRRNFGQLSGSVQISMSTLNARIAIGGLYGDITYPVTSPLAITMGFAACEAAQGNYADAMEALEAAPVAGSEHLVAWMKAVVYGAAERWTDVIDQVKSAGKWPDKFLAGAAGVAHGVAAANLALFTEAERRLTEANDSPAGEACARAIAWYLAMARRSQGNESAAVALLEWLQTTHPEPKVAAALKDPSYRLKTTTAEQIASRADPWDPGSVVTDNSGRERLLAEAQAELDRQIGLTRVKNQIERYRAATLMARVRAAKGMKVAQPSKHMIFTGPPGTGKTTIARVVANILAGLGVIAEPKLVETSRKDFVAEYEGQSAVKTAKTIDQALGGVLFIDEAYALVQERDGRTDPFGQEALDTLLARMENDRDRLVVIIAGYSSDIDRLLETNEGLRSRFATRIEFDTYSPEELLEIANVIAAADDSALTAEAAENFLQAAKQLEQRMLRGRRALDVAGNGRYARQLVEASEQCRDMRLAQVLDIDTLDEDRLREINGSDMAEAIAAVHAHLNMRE

B1: EspC-Δ20 truncated mutant (domain or fragment)
chain: MMTENLTVQPERLGVLASHHDNAAVDASSGVEAAAGLGESVAITHGPYCSQFNDTLNVYLTAHNALGSSLHTAGVDLAKSLRIA
Consider B1, for which the stoichiometry N (as a rule, the number of molecules, sites or subunits per partner or assembly) in the data set “SEC” amounted to 6.

B2: EspC-Δ10 truncated mutant (domain or fragment)
chain: MMTENLTVQPERLGVLASHHDNAAVDASSGVEAAAGLGESVAITHGPYCSQFNDTLNVYLTAHNALGSSLHTAGVDLAKSLRIAAKIYSEADEA
Regarding B2, the Kd – broadly, the equilibrium constant for the complex coming apart – with EccA1 ATPase, wild type was roughly 8.1 µM. The “stoichiometry N” value in “SEC” was found to be 6.

B3: EspC-Δ5 truncated mutant (domain or fragment)
chain: MTENLTVQPERLGVLASHHDNAAVDASSGVEAAAGLGESVAITHGPYCSQFNDTLNVYLTAHNALGSSLHTAGVDLAKSLRIAAKIYSEADEAWRKAID
Regarding B3, the Kd with EccA1 ATPase, wild type is roughly 6.7 µM. Moreover, in the data set “SEC”, the “stoichiometry N” value turned out to be 6.

B4: EspC (ESX-1 secreted protein C), wild type (natural protein)
chain: MMTENLTVQPERLGVLASHHDNAAVDASSGVEAAAGLGESVAITHGPYCSQFNDTLNVYLTAHNALGSSLHTAGVDLAKSLRIAAKIYSEADEAWRKAIDGLFT
The molecule B4 gave a dissociation constant (Kd) in the data set with EccA1 ATPase, wild type of roughly 0.14 µM.
